Substrate in series [1]: CC(C)=O
The experiment in a line: purified protein, by the assay type. The conditions noted are these: other: NADPH-dependent reductions, pH 7.0, 0.2 mM NADPH, partially purified enzyme, 30.0 °C.

Substrate in series [2]: CCC(=O)c1ccccc1
The experiment in a line: purified protein, by the assay type. Conditions: pH 7.0; 30.0 °C.

Substrate in series [3]: CC(=O)C(C)(C)C
As to the kind of experiment: purified protein, by the assay type. The conditions noted are these: pH 7.0; 30.0 °C.

Substrate in series [4]: CC(=O)c1ccccc1
As to the kind of experiment: purified protein, by the assay type. Conditions: other: acetophenone 50-7100 μM, 0.2 mM NADPH, pH 7.0, 30° C.

Substrate in series [5]: CC(=O)c1ccc(Br)cc1
As to the kind of experiment: purified protein, by the assay type. The conditions noted are these: other: NADPH-dependent reductions, pH 7.0, 0.2 mM NADPH, partially purified enzyme, 30.0 °C.

Substrate in series [6]: CCCCCCC(C)=O
The experiment in a line: purified protein, by the assay type. The conditions noted are these: other: NADPH-dependent reductions, pH 7.0, 0.2 mM NADPH, partially purified enzyme, 30.0 °C.

Substrate in series [7]: CC(=O)CCc1ccccc1
As to the kind of experiment: purified protein, by the assay type. Conditions: other: NADPH-dependent reductions, pH 7.0, 0.2 mM NADPH, partially purified enzyme, 30.0 °C.

Substrate in series [8]: CC(=O)c1ccc(Cl)cc1
As to the kind of experiment: purified protein, by the assay type. Conditions: pH 7.0; 30.0 °C.

Substrate in series [9]: CCCCCC(=O)CC
As to the kind of experiment: purified protein, by the assay type. Conditions: other: NADPH-dependent reductions, pH 7.0, 0.2 mM NADPH, partially purified enzyme, 30.0 °C.

Substrate in series [10]: NC(=O)C1=CN([C@@H]2O[C@H](COP(=O)(O)OP(=O)(O)OC[C@H]3O[C@@H](n4cnc5c(N)ncnc54)[C@H](OP(=O)(O)O)[C@@H]3O)[C@@H](O)[C@H]2O)C=CC1
The experiment in a line: purified protein, by the assay type. Conditions: other: NADPH 13 to 380 μM, 5.3 mM acetophenone, pH 7.0, 30° C.

Substrate in series [11]: CC(O)c1ccccc1
As to the kind of experiment: cells, lysate or membranes named. Conditions: other: NADP+-dependent oxidations; 30.0 °C.

Substrate in series [12]: NC(=O)c1ccc[n+]([C@@H]2O[C@H](COP(=O)(O)OP(=O)(O)OC[C@H]3O[C@@H](n4cnc5c(N)ncnc54)[C@H](OP(=O)(O)O)[C@@H]3O)[C@@H](O)[C@H]2O)c1
The experiment in a line: cells, lysate or membranes named. The conditions noted are these: other: NADP+-dependent oxidations; 30.0 °C.

Substrate in series [13]: CC(C)O
As to the kind of experiment: cells, lysate or membranes named. Conditions: other: NADP+-dependent oxidations; 30.0 °C.

Substrate in series [14]: C[C@@H](O)c1ccccc1
As to the kind of experiment: cells, lysate or membranes named. Conditions: other: NADP+-dependent oxidations; 30.0 °C.

As usually defined, the Km is the substrate concentration at which the rate is half of its maximum.

B1: phenylethanol dehydrogenase (Lentilactobacillus kefiri) (protein)
chain: TDRLKGKVAIVTGGTLGIGLAIADKFVEEGAKVVITGRHADVGEKAAKSIGGTDVIRFVQHDASDEAGWTKLFDTTEEAFGPVTTVVNNAGIAVSKSVEDTTTEEWRKLLSVNLDGVFFGTRLGIQRMKNKGLGASIINMSSIEGFVGDPTLGAYNASKGAVRIMSKSAALDCALKDYDVRVNTVHPGYIKTPLVDDLEGAEEMMSQRTKTPMGHIGEPNDIAWICVYLASDESKFATGAEFVVDGGYTAQ
As for B1, the Michaelis constant (Km) in [1] stood at 37.9 mM; in [2], 2740 µM; in series [3], 3.38 mM; in series [4] it was 600 µM; in series [5], 372 µM; in series [6], 251 µM. Besides, the Km in series [7] came to 9.4 mM; in series [8] it was 390 µM; in series [9], 681 µM; in series [10], 140 µM; in series [11], 4.3 mM; in series [12], 190 µM. In addition, the Km in series [13] amounted to 117 µM; in [14], 3.5 mM.

These data come from patent publication US5200335A (Forschungszentrum Juelich GmbH, priority 1990, dated 1993).
